Measured values taken from the supplement of paper PMC9170038.

Tested on: MS2 coat protein
Assay: apparent KD of MS2 coat protein; designed switch direction (-1 OFF switch, 1 ON switch): -1; higher = weaker reporter binding
Method in brief: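 Designed RNA switches with common flanks were made on Illumina chips by stalled E. coli RNA polymerase. Titration with SNAP-549-labelled MS2 coat protein doubled from 0.7 or 1.5 nM up to 3 µM. Apparent KD is each design's median over clusters after curve-fitting normalised fluorescence.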

[1] = Eterna round: R95, input ligand: FMN 200 uM
[2] = Eterna round: R95, input ligand: microRNA oligo, concentration not stated
[3] = Eterna round: R95, input ligand: none
[4] = input ligand: microRNA oligo, concentration not stated

Sequence | apparent KD of MS2 coat protein [2] [nM] | apparent KD of MS2 coat protein (input ligand: FMN 200 uM) [nM] | apparent KD of MS2 coat protein (input ligand: none) [nM] | also measured
GGUUGGCGAGGAUAUACAUGAGGAUCACCCAUGUGAGAGAAAGAAGUGAGGAAGAAAAGUAGAAGGUGCUGACG [salish99_ex3_r3_055] (puzzle: Exclusion 3) | 63.2 | – | – | apparent KD of MS2 coat protein [1]: 56.6 nM; apparent KD of MS2 coat protein [3]: 82.7 nM
GGUUGGCGAGGAUAUACAUGAGGAUCACCCAUGUGAGAGAAGAAAGUGAGGAAGAAAAGUAGAAGGCGCUGACG [salish99_ex3_r3_004] (puzzle: Exclusion 3) | 59 | – | – | apparent KD of MS2 coat protein [1]: 133 nM; apparent KD of MS2 coat protein [3]: 62.4 nM
GGUUGGCGAGGAUAUACAUGAGGAUCACCCAUGUGAGAGAUAAAAGUGAGGAAGAAAAGUAGAAGGCGCUGACG [salish99_ex3_r3_012] (puzzle: Exclusion 3) | 29.5 | – | – | apparent KD of MS2 coat protein [1]: 155 nM; apparent KD of MS2 coat protein [3]: 69 nM
GGUUGGCGAGGAUAUACAUGAGGAUCACCCAUGUGAGAGAUACUAGUGAGGUCGAUUGGUAGAAGGCGCUGACG [JL-ex3-2.02 salish99 mod] (puzzle: Exclusion 3) | 95.5 | – | – | apparent KD of MS2 coat protein [1]: 97.8 nM; apparent KD of MS2 coat protein [3]: 135 nM
GGUUUGCAGCAGGAUAUCCAUCCGCGGUAUGGUGGAGAAGGGCUGACAUGAGGAUCACCCAUGUGCGUCCUAGG [salish99_ex6_r4_017] (Eterna round: R97, puzzle: Exclusion 6) | – | 58.6 | 27.6 | –
GUAAAAAAAAAGGAUAUCGAACUUAUUAUUUAACGAGAAGGAUGAACAUGAGGAUCACCCAUGUGGUAUCAUGG [test] (puzzle: Exclusion 6) | 143 | – | – | apparent KD of MS2 coat protein [1]: 92.3 nM; apparent KD of MS2 coat protein [3]: 213 nM
GUAAACGAUCAGGAUAUAUCAAAUCAUAGCUUGAUAGAAGGGAUCACAUGAGGAUCACCCAUGUGAUCUUCUUU [jl-ex6-4.15 ViennaUCT mod] (Eterna round: R97, puzzle: Exclusion 6) | – | 13.2 | 13.9 | –
GUAAACGCAGAGGAUAUUUCAGAUCAAAGCUGCAAAGAAGGCUGCACAUGAGGAUCACCCAUGUGGUCUUCAAG [Mat - Exclusion 6 - JL Mod - D10] (Eterna round: R97, puzzle: Exclusion 6) | – | 297 | 24.7 | –
GUAAAGUGAGGAUAUGGUAAAUUAAUUAUUAAUUAAUUAAUCCAGAAGGCACAUGAGGAUCACCCAUGUAUAUG [Mat - Exclusion 4 - D88] (puzzle: Exclusion 4) | 30 | – | – | –
GUAACAACUAGAGGAUAUCAGCACGAUUAGUGCUGAGAAGGCUAGAGUUACAUGAGGAUCACCCAUGUCUAGAGAUCAUUAAUU [ENG1/13-A1] (Eterna round: R96, puzzle: Exclusion NG 1) | – | 155 | 79.7 | apparent KD of MS2 coat protein [4]: 53.2 nM
GUAAGAUCCGUCAGGAUAUAUGCCCAAGGAGGGACGUAGAAGGGACAUGAGGAUCACCCAUGUACCUCAAGGAU [Eternabot (L1) Solution 97] (Eterna round: R97, puzzle: Brourd's mod of Exclusion 4) | – | 17.6 | 16.1 | –
GUAAUGUGAGGAUAUGGUAAAGAUAAGAUGAUGAAAGAACUCCAGAAGGCACAUGAGGAUCACCCAUGUAGAUG [Mat - Exclusion 4 - Mod of JL - D27] (puzzle: Exclusion 4) | 26.1 | – | – | –
GUACUACAUGAGGAUCACCCAUGUCAGGAUAUUUGAAUUUCAUCAAAAGAUGAAAUUCGGAGAAGGGACAGUAC [Omei Ex1 A7] (Eterna round: R97, puzzle: Exclusion 1) | – | 31.1 | 21.7 | –
GUAGAGUAAGGAUAUAGUGAAUAGGAUAGAAUGGUUAGAAACUAGAAGGUACAUGAGGAUCACCCAUGUAAUGU [Excluse me!!!! 21 - Jieux - Exclusion 4] (puzzle: Exclusion 4) | 20.4 | – | – | –
GUAGAGUAAGGAUAUUGUGAAUAGGAUAGAAUGGUUAGAAACAAGAAGGUACAUGAGGAUCACCCAUGUAAUGU [Excluse me!!!! 20 - Jieux - Exclusion 4] (puzzle: Exclusion 4) | 21.3 | – | – | –
GUAGAGUCAGGAUAUACAAGAUCGAUAGAUCGGCGGUCCAUACAUGAGGAUCACCCAUGUAGAAGGGACUCUAC [Mat - Exclusion 2 - Eli Mod - D5] (Eterna round: R97, puzzle: Exclusion 2) | – | 514 | 27.2 | –
GUAGAGUCAGGAUAUACGAGAUCGAAAGAUCAAAGAUCCUUACAUGAGGAUCACCCAUGUAGAAGGGACUCUAC [Eli x2 4.14] (Eterna round: R97, puzzle: Exclusion 2) | – | 574 | 37.1 | –
GUAGAGUCAGGAUAUACGGGAUCGAAAGAUCGGCGAUCCAUACAUGAGGAUCACCCAUGUAGAAGGGACUCUAC [Omei mod 10 to Eli's favorate candidate (ch.parushev)] (Eterna round: R97, puzzle: Exclusion 2) | – | 189 | 22.7 | –

Sequence | apparent KD of MS2 coat protein [2] [nM] | apparent KD of MS2 coat protein (input ligand: FMN 200 uM) [nM] | apparent KD of MS2 coat protein (input ligand: none) [nM] | also measured
GUAUAACAUGUAGGAUAUGCGUGGCGAAGCUAUGCAGAAGGACAUGAGGAUCACCCAUGUUAUAGCGUCUGCGUACAGAUGCUA [Mat - Exclusion NG 1 - Mod of JL - D93] (Eterna round: R96, puzzle: Exclusion NG 1) | – | 204 | 24.5 | apparent KD of MS2 coat protein [4]: 26.2 nM
GUAUAUAGUGUGAGGAUAUGCUGGUCCUUGGAUCAGCAGAAGGCACAUGAGGAUCACCCAUGUAGUUUAUUAUU [Mat - Exclusion 4 - JL Mod - D9] (puzzle: Brourd's mod of Exclusion 4) | 24.1 | – | – | –
GUAUCGUGAGGAUAUCAUGAUUGACUUUUGUUUUGUCAGCGUGAGAAGGCACAUGAGGAUCACCCAUGUGAUUA [Ex4 - 3 - 9] (puzzle: Exclusion 4) | 22.3 | – | – | –
GUAUGUUCCUGAGGAUAUCGAGCCAUCGACCGCCGAGAAGGCAGAGACAUGAGGAUCACCCAUGUGAAGUAAUGGCGAUGAGAA [Eternabot solution 13] (Eterna round: R96, puzzle: Exclusion NG 1) | – | 15.4 | 17 | apparent KD of MS2 coat protein [4]: 10.8 nM
GUCACAUGGACAUAGGAUCACAUGAGGAUCACCCAUGUGACUAACAAGCUUUUUGUUCGUCUUAUGUCCAUGUGAAA [Stov1/15-B2] (Eterna round: R97, puzzle: Sensor, turn-off variant 1) | – | 15.3 | 11.2 | –
GUCACUAGAGGAUAUACAAUGGUAUAUGAUCCUAGAGACAUACAUGAGGAUCACCCAUGUAGAAGGCUAGUAAU [Exclusion 2 - 6] (puzzle: Exclusion 2) | 68.7 | – | – | –
GUCAGACGAGGAUAUGAUAAUUAAUACAUGAGGAUCACCCAUGUAAUACUGAUCCAUGGAUCAGAAGGCGUCUGAC [E5/4-A4] (Eterna round: R97, puzzle: Exclusion 5) | – | 42.7 | 17.6 | –
GUCAGCUCGUCAGGAUAUGAACAUGAGGAUCACCCAUGUAAGAUCAAGCUGCUUCGGCAGCAAGUUCAGAAGGGACGAGCUGAC [ENG2/10-B1] (Eterna round: R96, puzzle: Exclusion NG 2) | – | 161 | 113 | apparent KD of MS2 coat protein [4]: 78.7 nM
GUCAGCUCGUGAGGAUAUACAUGAGGAUCACCCAUGUGAUCAAUAGCAGCUUCGGCUGCAUUAAUGUAGAAGGCACGAGCUGAU [ENG2/5-A2] (Eterna round: R96, puzzle: Exclusion NG 2) | – | 10.1 | 203 | apparent KD of MS2 coat protein [4]: 166 nM
GUCAGCUCGUGAGGAUAUACAUGCGUGCUUCGGCACGUAUGAUAGAUCACAUGAGGAUCACCCAUGUAGAAGGCACGAGCUGAU [ENG2/4-A2] (Eterna round: R96, puzzle: Exclusion NG 2) | – | 21.7 | 11.8 | apparent KD of MS2 coat protein [4]: 10.4 nM
GUCAUCAAACAUGGGUUAAACAUGAGGAUCACCCAUGUAUACAAGUUUUUUGCUCGUCUUAUAAUAAGUUUGAUGAC [Antenna 7 - Jieux - Sensor, turn-off variant 1] (Eterna round: R97, puzzle: Sensor, turn-off variant 1) | – | 59.9 | 66.8 | –
GUCAUGUUAGGAUAUUUCCCAGCUGAGACUACAGAUUGUAGGAAGAAGGAACAUGAGGAUCACCCAUGUGAAAA [Eternabot (L2) Solution 28] (Eterna round: R97, puzzle: Exclusion 4) | – | 36.6 | 39 | –
GUCCCGGAAGGAUAUGCAGAGCACGAUCCCGUUAAAGGGCCACAUGAGGAUCACCCAUGUAGAAGGUCCAGGGC [EX2 B.21] (Eterna round: R97, puzzle: Exclusion 2) | – | 32.8 | 13.1 | –
GUCCUACAUGAGGAUCACCCAUGUGAGGAUAUGCGAUUAGCUGCUAGGUAGUUAGUAUGUAGAAGGCGCAUGAA [EX1 #77] (Eterna round: R97, puzzle: Exclusion 1) | – | 15.9 | 14.6 | –
GUCCUCUUGACAUGAGGAUCACCCAUGUAUUAUUUGUUAACUGAGGAUAUACUCUUAUUUUUUAUGUAGAAGGCAGAUUUGUUC [JR_ExcNG3_Sub022] (Eterna round: R96, puzzle: Exclusion NG 3) | – | – | – | apparent KD of MS2 coat protein [4]: 32.1 nM
GUCCUGGAAUAUCAGUCGCACAUGAGGAUCACCCAUGUCAUGGGUAGAUCAAUAAAUAAAGAUACUGCUCGUCUUAU [Cac sensor turnoff var1 sub3] (Eterna round: R97, puzzle: Sensor, turn-off variant 1) | – | 186 | 409 | –
GUCUACAUGACAUGAGGAUCACCCAUGUGUUAUAUUUUUACUAAGGAUAUAUUUUUAAUGUUGAGAUAGAAGGUAGUUUCGGUC [JR_ExcNG3_Sub093] (Eterna round: R96, puzzle: Exclusion NG 3) | – | – | – | apparent KD of MS2 coat protein [4]: 32.8 nM
